Data as given in patent US20260053903A1.

Target: dendritic cell-specific intercellular adhesion molecule-3-grabbing nonintegrin (DC-SIGN) (UniProt Q9NNX6)
Experiment: cell-based or functional assay

Chain of UniProt Q9NNX6 (Q9NNX6 whole entry): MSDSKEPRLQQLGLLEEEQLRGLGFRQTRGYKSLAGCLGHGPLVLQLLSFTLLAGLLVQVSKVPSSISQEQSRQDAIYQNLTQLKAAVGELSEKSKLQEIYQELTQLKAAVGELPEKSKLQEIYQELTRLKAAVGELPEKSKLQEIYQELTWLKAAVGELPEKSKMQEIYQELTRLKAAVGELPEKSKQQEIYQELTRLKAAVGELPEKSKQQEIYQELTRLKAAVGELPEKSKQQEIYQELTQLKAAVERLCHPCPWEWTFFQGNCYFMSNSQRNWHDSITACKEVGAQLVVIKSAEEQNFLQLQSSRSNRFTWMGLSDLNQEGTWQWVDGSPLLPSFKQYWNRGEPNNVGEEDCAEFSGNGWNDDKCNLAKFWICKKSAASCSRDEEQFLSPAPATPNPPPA

## Man-OvaI/II (combination of particles PP7-Man900-OvaI100 and PP7-Man900-OvaII100) (from UniProt P03630 2-127)
  uptake of fluorophore-labeled VLPs by moDCs over 30 min (flow cytometry) (fold against PE-OvaI/II): 5
